Target: Human NGF (manufactured by R&D Systems) (human) (UniProt P01138)
Assay: cell-based or functional assay

Sequence of Human NGF (manufactured by R&D Systems) (human) (P01138 122-241 limits assumed): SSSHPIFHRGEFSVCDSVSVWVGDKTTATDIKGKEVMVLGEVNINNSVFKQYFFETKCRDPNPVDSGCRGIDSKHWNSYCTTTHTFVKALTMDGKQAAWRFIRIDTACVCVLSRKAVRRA

“anti-NGF antibody (MAB2561, R&D Systems)” showed an inhibitory activity (neurite outgrowth of PC-12 cells) of over 50%.

Reference: patent publication US20110251266A1
